Results taken from publication PMC4791427, “Structural dynamics of the yeast Shwachman-Diamond syndrome protein (Sdo1) on the ribosome and its implication in the 60S subunit maturation” (Protein & Cell, 2016).

B1: Sdo1p, full-length (1-250) (natural protein)
chain: MPINQPSGQIKLTNVSLVRLKKARKRFEVACYQNKVQDYRKGIEKDLDEVLQIHQVFMNVSKGLVANKEDLQKCFGTTNVDDVIEEIMHKGEIQLSEKERQLMLNKVNNEMLTIVSAKCINPVSKKRYPPTMIHKALQELKFSPVINKPAKLQALEAIKLLVSKQIIPIVRAKMKVKVAISEPSRQPELIEKISKLIASSPGESTKPELDPWTCTGLIDPVNYRDLMTLCDKKGTVQVLDMAVIDNTTHN
B2: uL16 (RPL10), in the 60S subunit (natural protein, S. cerevisiae (endogenous in S288C), UniProt P41805 1-221, looked up)
chain: MARRPARCYRYQKNKPYPKSRYNRAVPDSKIRIYDLGKKKATVDEFPLCVHLVSNELEQLSSEALEAARICANKYMTTVSGRDAFHLRVRVHPFHVLRINKMLSCAGADRLQQGMRGAWGKPHGLAARVDIGQIIFSVRTKDSNKDVVVEGLRRARYKFPGQQKIILSKKWGFTNLDRPEYLKKREAGEVKDDGAFVKFLSKKGSLENNIREFPEYFAAQA
notes: ribosomal protein uL16 (RPL10) of S. cerevisiae; met Sdo1p as a subunit of the purified 60S particle, not as an isolated protein; source: endogenous, part of the 60S subunit purified from S. cerevisiae S288C
B3: Sdo1p domain I-II (1-169) (domain or fragment, S. cerevisiae, UniProt Q07953 1-169, looked up)
chain: MPINQPSGQIKLTNVSLVRLKKARKRFEVACYQNKVQDYRKGIEKDLDEVLQIHQVFMNVSKGLVANKEDLQKCFGTTNVDDVIEEIMHKGEIQLSEKERQLMLNKVNNEMLTIVSAKCINPVSKKRYPPTMIHKALQELKFSPVINKPAKLQALEAIKLLVSKQIIPI
notes: Sdo1p of S. cerevisiae, domains I-II, residues 1-169; cloned into pET21b; also called domains I-II; Sdo1p-I-II; source: E. coli BL21 (DE3), purified (Ni-NTA, gel filtration); not shown: His6, C-terminal, kept

Experiments:
[1] = molecular target: T1, Sdo1p, full-length (1-250) (S. cerevisiae, UniProt Q07953 1-250); test: BLI; Octet RED96; Sdo1p variants (2 μg/mL) immobilised on Anti-Penta-HIS biosensors; 60S subunit 1.75-48 nmol/L in 25 mmol/L Hepes-KOH pH 7.5, 100 mmol/L KCl, 2.5 mmol/L MgCl2; association and dissociation 240 s each
T1 construct: Sdo1p, the SBDS homologue of S. cerevisiae, full-length construct, residues 1-250; cloned into pET21b; also called Sdo1p-FL; FL; source: E. coli BL21 (DE3), purified (Ni-NTA, gel filtration); not shown: His6, C-terminal, kept
T1 sequence (looked up): B1 chain

[2] = molecular target: The truncated domain I, II and II-III; test: as above
[3] = molecular target: Sdo1p domain I-II (1-169) (S. cerevisiae) (UniProt Q07953); test: as above
[4] = molecular target: mature 60S ribosomal subunit of S. cerevisiae (S. cerevisiae (endogenous in S288C)) (UniProt P41805); test: cryo-EM structure; 60S subunit (100 nmol/L) with 20-fold (dimers, 14 Å map) or 10-fold (monomers, 9 Å map) excess of full-length Sdo1p, 30°C 15 min, without crosslinking
[5] = molecular target: T1, Sdo1p, full-length (1-250); test: cross-linking; CX-MS: 50 pmol 60S with full-length or truncated Sdo1p at 1:20, 25 mmol/L Hepes-KOH pH 7.5, 100 mmol/L KCl, 2.5 mmol/L MgCl2; DSS or BS3, room temperature 1 h; trypsin, LC-MS/MS, pLink FDR <5%; details: both partners purified
[6] = molecular target: B2; test: as above; details: both partners purified

mature 60S ribosomal subunit of S. cerevisiae (from UniProt P41805 1-221) (complex)
Kd [1]: 18 nM
Kd [2]: 25 to 40 nM
Kd [3]: 15 nM

B1
stoichiometry N [4]: 1

B2
binding result [5]: binds

B3
binding result [6]: binds
